From US6730503B1 (Roche Vitamins Inc., priority 1996, dated 2004)

B1: Enzyme A: recombinant AADH of G. oxydans DSM No. 4025, amino acid sequence SEQ ID NO 5, plasmid p24D4/pSSA102R (protein)
chain: MKPTSLLWASAGALALLAAPAFAQVTPVTDELLANPPAGEWISYGQNQENYRHSPLTQITTENVGQLQLVWARGMQPGKVQVTPLIHDGVMYLANPGDVIQAIDAKTGDLIWEHRRQLPNIATLNSFGEPTRGMALYGTNVYFVSWDNHLVALDTATGQVTFDVDRGQGEDMVSNSSGPIVANGVIVAGSTCQYSPFGCFVSGHDSATGEELWRNYFIPRAGEEGDETWGNDYEARWMTGAWGQITYDPVTNLVHYGSTAVGPASETQRGTPGGTLYGTNTRFAVRPDTGEIVWRHQTLPRDNWDQECTFEMMVTNVDVQPSTEMEGLQSINPNAATGERRVLTGVPCKTGTMWQFDAETGEFLWARDTNYQNMIESIDENGIVTVNEDAILKELDVEYDVCPTFLGGRDWPSAALNPDSGIYFIPLNNVCYDMMAVDQEFTSMDVYNTSNVTKLPPGKDMIGRIDAIDISTGRTLWSVERAAANYSPVLSTGGGVLFNGGTDRYFRALSQETGETLWQTRLATVASGQAISYEVDGMQYVAIAGGGVSYGSGLNSALAGERVDSTAIGNAVYVFALPQ
modifications: Gluconobacter oxydans; SIGNAL (1)..(23)
B2: Enzyme A′: recombinant AADH of G. oxydans DSM No. 4025, amino acid sequence SEQ ID NO 6, plasmid p1E2 (protein)
chain: MKTSSLLVASVAALASYSSFALAQVTPVTDELLANPPAGEWISYGQNQENYRHSPLTQITTENVGQLQLVWARGMQPGKVQVTPLIHDGVMYLANPGDVIQAIDAKTGDLIWEHRRQLPNIATLNSFGEPTRGMALYGTNVYFVSWDNHLVALDTATGQVTFDVDRGQGEDMVSNSSGPIVANGVIVAGSTCQYSPFGCFVSGHDSATGEELWRNYFIPRAGEEGDETWGNDYEARWMTGVWGQITYDPVGGLVHYGSSAVGPASETQRGTTGGTMYGTNTRFAVRPETGEIVWRHQTLPRDNWDQECTFEMMVANVDVQPAADMDGVRSINPNAATGERRVLTGVPCKTGTMWQFDAETGEFLWARDTSYENIIESIDENGIVTVDESKVLTELDTPYDVCPLLLGGRDWPSAALNPDTGIYFIPLNNTCMDIEAVDQEFSSLDVYNQSLTAKMAPGKELVGRIDAIDISTGRTLWTAEREASNYAPVLSTAGGVLFNGGTDRYFRALSQETGETLWQTRLATVASGQAVSYEIDGVQYIAIGGGGTTYGSFHNRPLAEPVDSTAIGNAMYVFALPQQ
modifications: Gluconobacter oxydans; SIGNAL (1)..(23)

Assays:
[1] = Substrate specificity of purified enzymes, PMS-DCIP spectrophotometric assay; assay type: biochemical; settings: A′ corrected 1.5-fold (purity about 65%)
Method: The enzymatic activity of the AADHs herein can be determined by methods known in the art, such as by photometric analysis using a spectrophotometer. In accordance with the present invention, one unit of enzyme activity was defined as the amount of enzyme which catalyzed the reduction of 1 μmole of DCIP per minute. The extinction coefficient of DCIP at pH 8.0 was taken as 15 mM^−1. In a preferred standard assay for determining the enzyme activity of the AADHs herein, a first cuvette includes a standard reaction mixture (1.0 ml) containing 0.1 mM DCIP, 1 mM PMS, 2 to 125 mM substrate, 50 mM Tris-malate-NaOH buffer (pH 8.0), and 10 μl of the enzyme solution. A second cuvette, i.e., a reference cuvette, contains all the above components except the substrate. The reference cuvette is used to standardize the background absorbance resulting from a substrate-independent (endogenous) reaction. Preferably, a double beam spectrophotometer is used to determine the activity of the enzyme in the presence of a substrate with respect to a standard reaction mixture in the absence of the substrate.
Enzyme activities of each clone (cell free extract, soluble fraction and membrane fraction) were measured by photometric analysis. The cells of each clone were inoculated in 5 ml of MB medium in a test tube and cultivated at 30° C. for 24 hours. The resulting broth was transferred into 200 ml of fresh MB medium in 500 ml flask and the flask was shaken on the rotary flask shaker at 30° C. for 24 hours. The cells were collected by centrifugation at 6,000×g for 10 minutes and washed with 40 ml of cold buffer consisting of 50 mM Tris-HCl, pH 7.5, 5 mM MgCl2 and 0.5 mM phenylmethylsulfonyl fluoride and suspended with the same buffer to prepare cell suspension of 1 g wet cells per 5 ml. The cell suspension was subjected twice to a French press cell disruptor (1,500 kg/cm^2) and the resulting homogenate was centrifuged at 6,000×g for 10 minutes to remove cell debris. Thus obtained cell free extract (CFE) was centrifuged at 100,000×g for 60 minutes. The resulting supernatant and pellet were collected as the cytosol fraction and the membrane fraction, respectively and subjected to PMS-DCIP assay as follows. The enzyme reaction mixture (1.0 ml) contained 100 μM DCIP, 1 mM PMS, 50 mM Tris malate-NaOH buffer, pH 8.0, a substrate and the enzyme (10 μl). Substrate-dependent decreasing rate of absorbance of DCIP at 600 nm was measured at 25° C. by using a Kontron spectrophotometer UVIKON 810. […] In the A-group, there were three types, A, A′ and A″ each of which was distinguished from each other by their physical map of the DNA carried on each plasmid. B- or C-group each consisted of only one type of protein derived from one region of the chromosomal DNA.

[2] = Optimal pH, PMS-DCIP assay in buffers of various pH; assay type: biochemical
Method: The Enzymes A″ and B have a relatively wide pH range toward a lower pH, compared with the Enzymes A and A′.
The enzyme activity was assayed by the PMS-DCIP spectrophotometric assay using various pH buffers. The buffers were 50 mM Tris-malate-NaOH, pH 6.0, 6.5, 7.0, 7.5, 8.0 and 8.5; 50 mM glycine-NaOH, pH 9.0 and 9.5. The extinction coefficients of DCIP at pH 6.0, 6.5, 7.0, 7.5, 8.0, 8.5, 9.0 and 9.5 were taken as 10.8, 13.2, 14.5, 14.9, 15.0, 15.1, 15.1 and 15.1, respectively. […] The Enzymes A″ and B had relatively wide pH range toward lower pH, compared with the Enzymes A and A′.

[3] = Oxidation product of AADH clones by resting cell reaction followed by TLC analysis; assay type: cell-based, P. putida
Excerpt: Enzyme A gene was originally cloned as a cosmid clone of p24D4 which has about 25 kb insert in EcoRI site of pVK100. Then, it was further subcloned to use as an Enzyme A gene cassette. The 2.7 kb EcoRV fragment which includes ORF of Enzyme A gene with about 500 bp of non-coding regions at the both ends was excised from 3.4 kb NruI fragment, which was isolated from p24D4 in M13 mp18, and was ligated to HindIII site of pUC18 with HindIII linker ([…]). The resulting plasmid was designated pSSA202. Enzyme A gene cassette (2.7 kb HindIII fragment) was then inserted at HindIII site of pVK102 to produce pSSA102R. The plasmid pSSA102R was introduced into nalidixic acid resistant P. putida [ATCC 21812] by a conjugal mating method as described in Example 1-(1). The transconjugant of P. putida carrying pSSA102R was selected on MB agar medium containing 50 μg/ml nalidixic acid and 10 μg/ml tetracycline (MNT agar medium) and subjected to a mini-resting cell reaction. […] The reaction mixture was assayed with TLC and 2KGA was identified as the product, while no 2KGA was observed by the same resting cell reaction with the host, nalidixic acid resistant P. putida [ATCC 21812].

[4] = Products of enzyme reactions with purified enzymes, identified by TLC and/or HPLC; assay type: biochemical
Method: Products formed from a substrate in the reaction with Enzyme A, Enzyme A′, Enzyme A″ or Enzyme B were analyzed by thin layer chromatography (TLC) and/or high performance liquid chromatography (HPLC) with authentic compounds. […] Similarly to the reactivity for L-sorbosone, D-glucosone can be converted to 2KD by all of above mentioned AADHs. A group enzymes can produce 2KD from D-fructose whose possible direct product is D-glucosone. […]
Enzyme reactions with purified Enzyme A or Enzyme B and various substrates were performed as described in Example 11.

Molecule | Substrate specificity ([1]; 2 mM L-Sorbosone) | Substrate specificity ([1]; 50 mM D-Glucose) | Substrate specificity ([1]; 50 mM D-Mannitol) | Substrate specificity ([1]; 50 mM Isopropanol) | Substrate specificity ([1]; 50 mM n-Propanol) | Substrate specificity ([1]; 125 mM D-Fructose) | Substrate specificity ([1]; 125 mM D-Sorbitol) | Substrate specificity ([1]; 125 mM L-Sorbose) | Relative activity (optimal pH) ([2]; assay pH 6.0, pH 8.0 = 100) [%] | Relative activity (optimal pH) ([2]; assay pH 6.5, pH 8.0 = 100) [%] | Relative activity (optimal pH) ([2]; assay pH 7.0, pH 8.0 = 100) [%] | Relative activity (optimal pH) ([2]; assay pH 7.5, pH 8.0 = 100) [%] | Relative activity (optimal pH) ([2]; assay pH 8.0) [%] | Relative activity (optimal pH) ([2]; assay pH 8.5, pH 8.0 = 100) [%] | Relative activity (optimal pH) ([2]; assay pH 9.0, pH 8.0 = 100) [%] | Relative activity (optimal pH) ([2]; assay pH 9.5, pH 8.0 = 100) [%] | Oxidation product of D-sorbitol [3] | Oxidation product of L-sorbose [3] | Oxidation product of L-sorbosone [3] | Product ([4]; substrate D-Mannitol) | other results
B1 | 23.15 units/mg of purified protein | 2.4 units/mg of purified protein | 7.1 units/mg of purified protein | 76.8 units/mg of purified protein | 139.6 units/mg of purified protein | 30.7 units/mg of purified protein | 14.0 units/mg of purified protein | 47.4 units/mg of purified protein | 6.5 | 13.0 | 33.1 | 57.7 | 100.0 | 113.2 | 50.0 | 19.6 | mainly D-glucose | *1Oxidation product of L-sorbose by Enzymes A, A′, A″, and [A and B] was 2KGA. | *4Oxidation product of L-sorbosone by Enzymes A, A′, A″, B, and [A and B] was 2KGA. | D-Mannose | Product ([4]; substrate D-Sorbitol): D-glucose with L-gulose; Product ([4]; substrate L-Sorbose): L-sorbosone with 2KGA; Product ([4]; substrate L-Sorbosone): 2KGA
B2 | 5.0 units/mg of purified protein | 0.0 units/mg of purified protein | 1.3 units/mg of purified protein | 108.9 units/mg of purified protein | 180.7 units/mg of purified protein | 2.9 units/mg of purified protein | 7.8 units/mg of purified protein | 1.6 units/mg of purified protein | 2.1 | 9.3 | 22.5 | 46.8 | 100.0 | 142.7 | 2.1 | 1.8 | mainly D-glucose | *1Oxidation product of L-sorbose by Enzymes A, A′, A″, and [A and B] was 2KGA. | *4Oxidation product of L-sorbosone by Enzymes A, A′, A″, B, and [A and B] was 2KGA. | D-mannose | Product ([4]; substrate D-Fructose): 2-keto-D-gluconic acid; Product ([4]; substrate D-Sorbitol): D-glucose with L-gulose; Product ([4]; substrate L-Sorbose): L-sorbosone with 2KGA; Product ([4]; substrate L-Sorbosone): 2KGA
